# Measurements published in article PMC12380113.
# Legend:
# [1] = target: T1, CD34 (human orbital fibroblasts) (Homo sapiens) (UniProt P28906); experiment: flow cytometry; details: whole-cell binding to human orbital fibroblasts, 4 C, 1 h, SELEX binding buffer: DPBS, 4.5 mg/mL D-glucose, 5 mM MgCl2, 1 mg/mL BSA, 1 mg/mL yeast tRNA, flow cytometry at 4 C, pull-down lysis buffer 5 mM …
# T1 sequence: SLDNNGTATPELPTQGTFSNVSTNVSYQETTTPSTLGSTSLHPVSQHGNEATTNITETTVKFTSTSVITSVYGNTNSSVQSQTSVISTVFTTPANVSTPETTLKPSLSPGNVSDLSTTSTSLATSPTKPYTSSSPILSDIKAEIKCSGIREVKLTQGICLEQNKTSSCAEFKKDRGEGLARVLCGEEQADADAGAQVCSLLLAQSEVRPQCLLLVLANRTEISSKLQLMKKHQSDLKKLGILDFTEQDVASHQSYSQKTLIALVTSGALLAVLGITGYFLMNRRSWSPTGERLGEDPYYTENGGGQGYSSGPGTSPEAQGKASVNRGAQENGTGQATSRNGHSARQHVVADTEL
# [2] = target: T2, CD34 (mouse orbital fibroblasts) (Mus musculus) (UniProt Q64314); experiment: flow cytometry; details: whole-cell binding to mouse orbital fibroblasts, 4 C, 1 h, SELEX binding buffer: DPBS, 4.5 mg/mL D-glucose, 5 mM MgCl2, 1 mg/mL BSA, 1 mg/mL yeast tRNA, flow cytometry at 4 C, pull-down lysis buffer 5 mM …
# T2 sequence: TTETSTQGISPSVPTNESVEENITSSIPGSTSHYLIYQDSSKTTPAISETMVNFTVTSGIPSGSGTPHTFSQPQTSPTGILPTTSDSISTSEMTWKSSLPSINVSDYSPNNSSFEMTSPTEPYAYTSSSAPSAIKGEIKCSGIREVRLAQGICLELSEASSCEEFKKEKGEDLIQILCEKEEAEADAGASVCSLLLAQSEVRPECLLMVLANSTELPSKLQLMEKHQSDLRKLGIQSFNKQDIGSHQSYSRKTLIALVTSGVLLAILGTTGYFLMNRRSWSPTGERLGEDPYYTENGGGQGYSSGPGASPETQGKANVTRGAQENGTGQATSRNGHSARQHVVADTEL
sequence,measurement,setting,value
CAGCACCGTCAACTGAATCTCATTGCGGCGTCCGGCTGGACGTTATTGTTGGAACCGTGATGCGATGGAGATGT [CD34 Apt (FAM)],Kd,[1],19.1 nM
same,Kd,[2],90.3 nM
